# Test results reported in patent US20200087373A1 (UNIVERSITY OF COPENHAGEN, published 2020).
# Ends that are not written are not given here. * marks the point of attachment. C16 diacid = O=C(O)CCCCCCCCCCCCCCC(=O)*
# T1: human GIP receptor (human, UniProt P48546 22-466)
# T1 sequence (looked up): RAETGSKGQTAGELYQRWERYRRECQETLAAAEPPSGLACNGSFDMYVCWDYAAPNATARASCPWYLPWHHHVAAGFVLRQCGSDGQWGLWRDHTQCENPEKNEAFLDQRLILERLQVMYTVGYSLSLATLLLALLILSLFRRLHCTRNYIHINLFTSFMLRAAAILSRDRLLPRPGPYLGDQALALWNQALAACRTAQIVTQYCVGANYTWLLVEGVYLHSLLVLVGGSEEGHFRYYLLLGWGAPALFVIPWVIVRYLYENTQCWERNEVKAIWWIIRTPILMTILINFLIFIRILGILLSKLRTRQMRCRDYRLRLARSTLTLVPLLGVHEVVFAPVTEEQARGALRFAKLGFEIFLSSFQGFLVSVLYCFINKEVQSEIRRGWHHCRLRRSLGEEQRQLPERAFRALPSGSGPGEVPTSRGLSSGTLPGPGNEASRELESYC
# B1: AT172 [hGIP(5-30)NH2[Y10K]-C16diacid/10] (peptide)
# peptide: TFISDK(C16 diacid)SIAMDKIHQQDFVNWLLAQK-NH2
# modifications: N-terminus assumed
# SMILES: CC[C@H](C)[C@H](NC(=O)[C@H](CO)NC(=O)[C@H](CCCCNC(=O)CCCCCCCCCCCCCCC(=O)O)NC(=O)[C@H](CC(=O)O)NC(=O)[C@H](CO)NC(=O)[C@@H](NC(=O)[C@H](Cc1ccccc1)NC(=O)[C@@H](N)[C@@H](C)O)[C@@H](C)CC)C(=O)N[C@@H](C)C(=O)N[C@@H](CCSC)C(=O)N[C@@H](CC(=O)O)C(=O)N[C@@H](CCCCN)C(=O)N[C@H](C(=O)N[C@@H](Cc1c[nH]cn1)C(=O)N[C@@H](CCC(N)=O)C(=O)N[C@@H](CCC(N)=O)C(=O)N[C@@H](CC(=O)O)C(=O)N[C@@H](Cc1ccccc1)C(=O)N[C@H](C(=O)N[C@@H](CC(N)=O)C(=O)N[C@@H](Cc1c[nH]c2ccccc12)C(=O)N[C@@H](CC(C)C)C(=O)N[C@@H](CC(C)C)C(=O)N[C@@H](C)C(=O)N[C@@H](CCC(N)=O)C(=O)N[C@@H](CCCCN)C(N)=O)C(C)C)[C@@H](C)CC
# B2: AT176 [hGIP(5-30)NH2[M14K]-C16diacid/14] (peptide)
# peptide: TFISDYSIAK(C16 diacid)DKIHQQDFVNWLLAQK-NH2
# modifications: N-terminus assumed
# SMILES: CC[C@H](C)[C@H](NC(=O)[C@H](CO)NC(=O)[C@H](Cc1ccc(O)cc1)NC(=O)[C@H](CC(=O)O)NC(=O)[C@H](CO)NC(=O)[C@@H](NC(=O)[C@H](Cc1ccccc1)NC(=O)[C@@H](N)[C@@H](C)O)[C@@H](C)CC)C(=O)N[C@@H](C)C(=O)N[C@@H](CCCCNC(=O)CCCCCCCCCCCCCCC(=O)O)C(=O)N[C@@H](CC(=O)O)C(=O)N[C@@H](CCCCN)C(=O)N[C@H](C(=O)N[C@@H](Cc1c[nH]cn1)C(=O)N[C@@H](CCC(N)=O)C(=O)N[C@@H](CCC(N)=O)C(=O)N[C@@H](CC(=O)O)C(=O)N[C@@H](Cc1ccccc1)C(=O)N[C@H](C(=O)N[C@@H](CC(N)=O)C(=O)N[C@@H](Cc1c[nH]c2ccccc12)C(=O)N[C@@H](CC(C)C)C(=O)N[C@@H](CC(C)C)C(=O)N[C@@H](C)C(=O)N[C@@H](CCC(N)=O)C(=O)N[C@@H](CCCCN)C(N)=O)C(C)C)[C@@H](C)CC
# B3: AT174 [hGIP(5-30)NH2[I12K]-C16diacid/12] (peptide)
# peptide: TFISDYSK(C16 diacid)AMDKIHQQDFVNWLLAQK-NH2
# modifications: N-terminus assumed
# SMILES: CC[C@H](C)[C@H](NC(=O)[C@H](CCCCN)NC(=O)[C@H](CC(=O)O)NC(=O)[C@H](CCSC)NC(=O)[C@H](C)NC(=O)[C@H](CCCCNC(=O)CCCCCCCCCCCCCCC(=O)O)NC(=O)[C@H](CO)NC(=O)[C@H](Cc1ccc(O)cc1)NC(=O)[C@H](CC(=O)O)NC(=O)[C@H](CO)NC(=O)[C@@H](NC(=O)[C@H](Cc1ccccc1)NC(=O)[C@@H](N)[C@@H](C)O)[C@@H](C)CC)C(=O)N[C@@H](Cc1c[nH]cn1)C(=O)N[C@@H](CCC(N)=O)C(=O)N[C@@H](CCC(N)=O)C(=O)N[C@@H](CC(=O)O)C(=O)N[C@@H](Cc1ccccc1)C(=O)N[C@H](C(=O)N[C@@H](CC(N)=O)C(=O)N[C@@H](Cc1c[nH]c2ccccc12)C(=O)N[C@@H](CC(C)C)C(=O)N[C@@H](CC(C)C)C(=O)N[C@@H](C)C(=O)N[C@@H](CCC(N)=O)C(=O)N[C@@H](CCCCN)C(N)=O)C(C)C
# B4: AT177 [hGIP(5-30)NH2[D15K]-C16diacid/15] (peptide)
# peptide: TFISDYSIAMK(C16 diacid)KIHQQDFVNWLLAQK-NH2
# modifications: N-terminus assumed
# SMILES: CC[C@H](C)[C@H](NC(=O)[C@H](CO)NC(=O)[C@H](Cc1ccc(O)cc1)NC(=O)[C@H](CC(=O)O)NC(=O)[C@H](CO)NC(=O)[C@@H](NC(=O)[C@H](Cc1ccccc1)NC(=O)[C@@H](N)[C@@H](C)O)[C@@H](C)CC)C(=O)N[C@@H](C)C(=O)N[C@@H](CCSC)C(=O)N[C@@H](CCCCNC(=O)CCCCCCCCCCCCCCC(=O)O)C(=O)N[C@@H](CCCCN)C(=O)N[C@H](C(=O)N[C@@H](Cc1c[nH]cn1)C(=O)N[C@@H](CCC(N)=O)C(=O)N[C@@H](CCC(N)=O)C(=O)N[C@@H](CC(=O)O)C(=O)N[C@@H](Cc1ccccc1)C(=O)N[C@H](C(=O)N[C@@H](CC(N)=O)C(=O)N[C@@H](Cc1c[nH]c2ccccc12)C(=O)N[C@@H](CC(C)C)C(=O)N[C@@H](CC(C)C)C(=O)N[C@@H](C)C(=O)N[C@@H](CCC(N)=O)C(=O)N[C@@H](CCCCN)C(N)=O)C(C)C)[C@@H](C)CC
# B5: AT175 [hGIP(5-30)NH2[A13K]-C16diacid/13] (peptide)
# peptide: TFISDYSIK(C16 diacid)MDKIHQQDFVNWLLAQK-NH2
# modifications: N-terminus assumed
# SMILES: CC[C@H](C)[C@H](NC(=O)[C@H](CCCCN)NC(=O)[C@H](CC(=O)O)NC(=O)[C@H](CCSC)NC(=O)[C@H](CCCCNC(=O)CCCCCCCCCCCCCCC(=O)O)NC(=O)[C@@H](NC(=O)[C@H](CO)NC(=O)[C@H](Cc1ccc(O)cc1)NC(=O)[C@H](CC(=O)O)NC(=O)[C@H](CO)NC(=O)[C@@H](NC(=O)[C@H](Cc1ccccc1)NC(=O)[C@@H](N)[C@@H](C)O)[C@@H](C)CC)[C@@H](C)CC)C(=O)N[C@@H](Cc1c[nH]cn1)C(=O)N[C@@H](CCC(N)=O)C(=O)N[C@@H](CCC(N)=O)C(=O)N[C@@H](CC(=O)O)C(=O)N[C@@H](Cc1ccccc1)C(=O)N[C@H](C(=O)N[C@@H](CC(N)=O)C(=O)N[C@@H](Cc1c[nH]c2ccccc12)C(=O)N[C@@H](CC(C)C)C(=O)N[C@@H](CC(C)C)C(=O)N[C@@H](C)C(=O)N[C@@H](CCC(N)=O)C(=O)N[C@@H](CCCCN)C(N)=O)C(C)C
# B6: AT173 [hGIP(5-30)NH2[S11K]-C16diacid/11] (peptide)
# peptide: TFISDYK(C16 diacid)IAMDKIHQQDFVNWLLAQK-NH2
# modifications: N-terminus assumed
# SMILES: CC[C@H](C)[C@H](NC(=O)[C@H](CCCCNC(=O)CCCCCCCCCCCCCCC(=O)O)NC(=O)[C@H](Cc1ccc(O)cc1)NC(=O)[C@H](CC(=O)O)NC(=O)[C@H](CO)NC(=O)[C@@H](NC(=O)[C@H](Cc1ccccc1)NC(=O)[C@@H](N)[C@@H](C)O)[C@@H](C)CC)C(=O)N[C@@H](C)C(=O)N[C@@H](CCSC)C(=O)N[C@@H](CC(=O)O)C(=O)N[C@@H](CCCCN)C(=O)N[C@H](C(=O)N[C@@H](Cc1c[nH]cn1)C(=O)N[C@@H](CCC(N)=O)C(=O)N[C@@H](CCC(N)=O)C(=O)N[C@@H](CC(=O)O)C(=O)N[C@@H](Cc1ccccc1)C(=O)N[C@H](C(=O)N[C@@H](CC(N)=O)C(=O)N[C@@H](Cc1c[nH]c2ccccc12)C(=O)N[C@@H](CC(C)C)C(=O)N[C@@H](CC(C)C)C(=O)N[C@@H](C)C(=O)N[C@@H](CCC(N)=O)C(=O)N[C@@H](CCCCN)C(N)=O)C(C)C)[C@@H](C)CC
# How the values were obtained:
# [1] = target: T1, human GIP receptor; experiment: cell-based or functional assay
# [2] = target: T1, human GIP receptor; experiment: 125I-hGIP competition binding, COS-7/hGIPR, 2% HSA;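 also: nonspecific binding defined as radioligand binding to untransfected cells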
# Method: (§1) After incubation, the cells were washed twice in ice-cold binding buffer (+/−2% HSA) and lysed using 200 mM NaOH with 1% SDS for 30 min. Nonspecific binding was determined as the binding of radioactive ligand to untransfected cells.
# [3] = target: T1, human GIP receptor; experiment: 125I-hGIP competition binding, COS-7/hGIPR, 0.1% casein;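 also: nonspecific binding defined as radioligand binding measured on untransfected cells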
# Method: as §1
# [4] = target: T1, human GIP receptor; experiment: 125I-hGIP competition binding, COS-7 cells expressing hGIPR;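 also: nonspecific binding taken as radioligand bound by untransfected cells, binding buffer with or without 2% HSA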
# Method: as §1
# [5] = target: T1, human GIP receptor; experiment: IC50 with 2% HSA over IC50 with 0.1% casein, 125I-hGIP competition, COS-7/hGIPR
# Method: as §1
Binder,"cAMP agonism, Emax [1]",cAMP antagonism [1] [nM],"cAMP antagonism, log [1] [log M]",IC50 [2] [nM],logIC50 [2] [log M],IC50 [3] [nM],logIC50 [3] [log M],IC50 [4] [nM],log IC50 [4] [log M],Fold change HSA (2%)/Casein (0.1%) [5] [fold],cAMP agonism [1] [nM],"cAMP agonism, EC50 (log) [1] [log M]"
B1,0,259,-6.6,955,-6,251,-6.6,252,-6.6,3.8,–,–
B2,12,121,-6.9,562,-6.3,115,-6.9,114,-6.9,4.9,121,-7
B3,0,23,-7.6,282,-6.6,79.4,-7.1,80,-7.1,3.5,–,–
B4,30,59,-7.2,513,-6.29,135,-6.87,134,-6.9,3.8,59,-7
B5,0,17,-7.8,562,-6.3,72.4,-7.1,73,-7.1,7.8,–,–
B6,0,10,-8,60.3,-7.2,8.1,-8.1,8,-8.1,7.4,–,–
